In publication PMC8809517, “Cofactor-independent RNA editing by a synthetic S-type PPR protein”:

T1: GFP-9S library array, motif 4 ND N98I;D124L (synthetic construct, N98I;D124L)
T1 chain: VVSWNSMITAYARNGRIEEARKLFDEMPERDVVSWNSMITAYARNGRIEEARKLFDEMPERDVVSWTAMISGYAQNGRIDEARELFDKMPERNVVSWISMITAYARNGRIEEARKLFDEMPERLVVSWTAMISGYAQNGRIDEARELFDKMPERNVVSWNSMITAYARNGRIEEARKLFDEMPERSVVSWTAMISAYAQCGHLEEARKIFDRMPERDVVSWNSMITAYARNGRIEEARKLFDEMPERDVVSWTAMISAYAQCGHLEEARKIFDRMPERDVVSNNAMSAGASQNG

T2: GFP-9S library array, motif 4 ND N98W;D124K (synthetic construct, N98W;D124K)
T2 chain: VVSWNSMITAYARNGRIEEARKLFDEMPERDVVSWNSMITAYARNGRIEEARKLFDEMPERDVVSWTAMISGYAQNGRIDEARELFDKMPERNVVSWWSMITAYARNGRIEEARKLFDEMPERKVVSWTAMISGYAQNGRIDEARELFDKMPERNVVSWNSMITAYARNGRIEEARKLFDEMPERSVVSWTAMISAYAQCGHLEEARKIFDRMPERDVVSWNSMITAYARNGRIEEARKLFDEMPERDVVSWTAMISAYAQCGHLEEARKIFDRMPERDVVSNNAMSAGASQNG

T3: GFP-9S library array, motif 4 ND N98H;D124Q (synthetic construct, N98H;D124Q)
T3 chain: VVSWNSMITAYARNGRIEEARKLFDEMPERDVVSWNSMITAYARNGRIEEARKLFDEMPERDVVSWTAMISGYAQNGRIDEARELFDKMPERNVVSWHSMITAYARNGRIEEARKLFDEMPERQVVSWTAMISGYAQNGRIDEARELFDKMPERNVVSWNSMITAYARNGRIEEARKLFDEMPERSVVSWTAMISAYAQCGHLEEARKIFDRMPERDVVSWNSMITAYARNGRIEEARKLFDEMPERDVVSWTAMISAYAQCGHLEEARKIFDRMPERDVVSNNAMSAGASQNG

T4: GFP-9S library array, motif 4 ND N98L;D124S (synthetic construct, N98L;D124S)
T4 chain: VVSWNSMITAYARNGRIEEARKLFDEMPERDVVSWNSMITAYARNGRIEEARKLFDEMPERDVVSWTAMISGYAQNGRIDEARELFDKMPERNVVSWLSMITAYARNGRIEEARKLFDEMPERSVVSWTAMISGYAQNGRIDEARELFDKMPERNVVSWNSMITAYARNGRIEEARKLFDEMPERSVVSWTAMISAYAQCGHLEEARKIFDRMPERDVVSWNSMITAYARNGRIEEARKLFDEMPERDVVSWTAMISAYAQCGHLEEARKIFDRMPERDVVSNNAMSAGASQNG

T5: GFP-9S library array, motif 4 ND N98R;D124S (synthetic construct, N98R;D124S)
T5 chain: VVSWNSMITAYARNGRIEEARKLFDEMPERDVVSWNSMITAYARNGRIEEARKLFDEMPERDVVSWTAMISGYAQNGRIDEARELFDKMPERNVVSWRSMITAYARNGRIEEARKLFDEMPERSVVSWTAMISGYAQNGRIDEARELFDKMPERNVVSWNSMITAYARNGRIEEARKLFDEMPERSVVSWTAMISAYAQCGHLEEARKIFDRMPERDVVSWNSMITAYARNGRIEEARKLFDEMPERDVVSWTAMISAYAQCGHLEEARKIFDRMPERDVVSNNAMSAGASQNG


Columns and labels:
Assay in all cases: high-throughput RNA pulldown from lysate on Ni-NTA beads; HRP: 50 mM Tris pH 8, 150 mM NaCl, 1 mM beta-mercaptoethanol, 50 ug/ml BSA, 3 ug/ml yeast RNA, 0.5% heparin; ITC and FP: Tris pH 8, 200 mM KCl, 5% glycerol; MST: 50 mM Tris pH 8, 200 mM NaCl, 1 mM DTT, BSA, heparin, 0.05% Tween 20
Conditions in all cases: tags: N-terminal His-eGFP
[1] = target: T1, GFP-9S library array, motif 4 ND …
[2] = target: T2, GFP-9S library array, motif 4 ND …
[3] = target: T3, GFP-9S library array, motif 4 ND …
[4] = target: T4, GFP-9S library array, motif 4 ND …
[5] = target: T5, GFP-9S library array, motif 4 ND …

| Binder | Kd ([1]; label: 5' Cy5) [nM] | Kd ([2]; label: 5' Cy5) [nM] | Kd ([3]; label: 5' Cy5) [nM] | Kd ([4]; label: 5' Cy5) [nM] | Kd ([5]; label: 5' Cy5) [nM] | Kd ([1]; label: 5' IRDye 800CW) [nM] | Kd ([2]; label: 5' IRDye 800CW) [nM] | Kd ([3]; label: 5' IRDye 800CW) [nM] | Kd ([4]; label: 5' IRDye 800CW) [nM] | Kd ([5]; label: 5' IRDye 800CW) [nM] |
| --- | --- | --- | --- | --- | --- | --- | --- | --- | --- | --- |
| AUUAGACGUGA (ssRNA) [Cy5-rpoA-G] | 128 | 48.1 | 60.8 | 111 | 93.6 |  |  |  |  |  |
| AUUACACGUGA (ssRNA) [Cy5-rpoA] | 106 | 72.6 | 68.7 | 139 | 72.7 |  |  |  |  |  |
| AUUAUACGUGA (ssRNA) [IR-rpoA-U] |  |  |  |  |  | 202 | 154 | 31.4 | 37.2 | 88.9 |
| AUUAAACGUGA (ssRNA) [IR-rpoA-A] |  |  |  |  |  | 343 | 177 | 82.6 | 120 | 184 |
